Measurements reported in patent US20240279318A1 (published 2024).

Key:
A*02:03 = experiment: SPR
A*02:06 [1] = experiment: SPR
A*02:02 [2] = experiment: SPR
A*02:05 [3] = experiment: SPR
A*02:11 [4] = experiment: SPR
A*02:07 [5] = experiment: SPR
A*02:06 [6] = experiment: SPR; low fitting confidence
A*02:02 [7] = experiment: SPR; low fitting confidence
A*02:05 [8] = experiment: SPR; low fitting confidence
A*02:11 [9] = experiment: SPR; low fitting confidence
A*02:07 [10] = experiment: SPR; low fitting confidence

B1: AS179723 (Fc fusion)
chain: QAGLTQPPSMSGSPRQSVTISCTGSSNNIGGNYVNWYQHLPGTAPKLLIYDNKNRPSGVPEQISGSKSGSSASLTITGLQAEDEGDYYCASWDDSLSAVVFGGGTHLTVLGGGGSGGGGSGGGGSEVQLVESGGGLVQPGGSLRLSCAASGFTFLNYAMSWVRQAPGKGLEWVSSNSGAGSTYYSDSVKGRFTISRDYAKNVVYLQLNSLKTEDTGMYYCAKGTNVGSWSSLHYWGQGTQVTVSS
A Kd (A*02:03) of 2.57 µM, a Kd (A*02:06 [1]) of 0.114 µM and a Kd (A*02:02 [2]) of 32.2 µM were found for B1 in this work. It also gave a Kd (A*02:05 [3]) of 29 µM, a Kd (A*02:11 [4]) of 0.297 µM and a Kd (A*02:07 [5]) of 1.27 µM.

B2: AS170036 (Fc fusion)
chain: QLVLTQPSSVSGTPGQTVTISCAGTSSDVGSENYVSWYRQLPGTAPKLLIYQVNKRASGIADRFSGSKSGNTASMTISGLQSADEADYYCASYRSSDHNIVFGGGTHLTVLGGGGSGGGGSGGGGSAVQLVESGGGLVQPGGSLRLSCTASGFTFSSYAMSWVRQAPGKGLEWVSTINSGTGSPYYADSVKGRFTISRDNAKNTLYLQLNSLKTEDTAMYYCAKNFFDGSWFLGPPAMDYWGKGTLVTISS
A Kd (A*02:03) of 38 µM, a Kd (A*02:06 [6]) of over 3.1 µM and a Kd (A*02:02 [7]) of over 5 µM were found for B2 in this work. For the same binder, the Kd (A*02:05 [8]) was over 100 µM, the Kd (A*02:11 [9]) was over 28 µM and the Kd (A*02:07 [10]) was over 4.8 µM.
